Measurements published in the nanobody polyreactivity screen of Harvey et al. (2022).

test: yeast display, Sf9 membrane polyspecificity reagent, FACS + sequencing; frameworks hold sequencing errors
Procedure, shortened: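 Galactose-induced (36–48 hours) yeast carrying a synthetic nanobody display library were exposed to 10% biotinylated, detergent-solubilized Sf9 membrane reagent at 4 °C for 1 hour. FACS followed streptavidin microbead enrichment, using low and high (top ~1%) gates for expression (anti-HA) and reagent binding (streptavidin). Colony PCR, MiSeq 2 × 250 sequencing and CDR-length filtering followed. Labels for polyreactivity reflect the gate of origin.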

Row | Sequence | polyreactivity (PSR sort gate)
1 | QVQIVESGGGLVQAGGSLRISCAASGFIFNRYAMGWYRQAPGTERELVADITGGSTYFADSVKGRFTISRDNAKNTVYLLMKSLKPEDTAVYYCAADVLRISTLLFRGPGFDYWGQGTQVTVSS | low polyreactivity
2 | QVQIVESGGGLVQAGGSLRLSCAASGFIFDFYTMGWYRQAPGKERELVAAITWSGDSTYYADSVKGRFTISRDNAKNTVYLQMNSLKPEDTGVYYCAADWWGVWYFDYDYWGQGTQVTVSS | low polyreactivity
3 | QVQIVESGGGLVQAGGSLRLSCAASGFIFDYNAMGWYRQAPGKERELVAAISYSGGRTSYADSVKGRFTISRDNAKNTVYLQMNSLKPEDTAVYYCAKDNYVDFGGYYYPRMYYWGQGTQVTVSS | high polyreactivity
4 | QVQIVESGGGLVQAGGSLRLSCAASGFIFNIYAMGWYRQAPGKERELVAAITFSGGSTYYADSVKGRFTISRDNAKNTVYFQMNSLKPEDTAVYYCAADYLSEYTTYDYWGQGTQVTVSS | low polyreactivity
5 | QVQIVESGGGLVQAGGSLRLSCAASGFTFGVYAMGWYRQAPGKERELVAAISVSGGRTYYADSVKGRFTISRDNAKNTVYLQMNSLKPEDTAVYYCAADLGLKTSSRRTSMYYWGQGTQVTVSS | high polyreactivity
6 | QVQIVESGGGLVQAGGSLRLSCAASGFTLHRNAMGWYRQAPGKERELVANISWTGGSTYYADSVKGRFTISRDNAKNTVYLQMNSLKPEDTAVYYCAARGHWSIYGYYYLGATAFGYWGQGTQVTVSS | low polyreactivity
7 | QVQIVESGGGLVQAGGSLRLSCAASGGTFLPYAMGSYRQAPGKERELVATITLIGDSTYYADSVKGRFTISRDNAKNTVYLQMNSLKPEDTAVYYCAARPVTSYAYGSWGQGSQVTVSS | low polyreactivity
8 | QVQIVESGGGLVQAGGSLRLSCAASGIIFYYYAMGWYRPAPGKERELVAGISYSGGSTYADSVKGLFTISRDNAKNTVYLQMNSLKPEDTAVYDCAADYDYGGHWYDYWGQGTQVTVSS | low polyreactivity
9 | QVQIVESGGGLVQAGGSLRLSCAASGITFVGNAMVWYRQAPGKERELVAVISRGDSTNYADSVKGLFTISRDNAKNTVYLQMNSLKPEDTAVYYCAADGSRAGQEGNDYWGQGTQVSVSS | low polyreactivity
10 | QVQIVESGGGLVQAGGSLRLSCAASGNIFDRYAMGWYRQAPGKERELVAGITWSGGSTYYADSVKGRFTISRDNAKNTVYLQMNSLKPDDTAVYYCGQANYYWGLGTQVTVSS | low polyreactivity
11 | QVQIVESGGGLVQAGGSLRLSCAASGRIFDGYAMGWYRQAPGKERELVAAISLSDGSTYYADSVKGRFTISRDHAKNTVYLQMNILKPEDTAVYYCAARVQHYLATDDYWGQGTQVTVSS | low polyreactivity
12 | QVQIVESGGGLVQAGGSLRLSCAASGRIFGFNAMAWYRQAPGKERELVAAISWSSGRTYYADSVKGRFTISRDNAKNTVYLQMNSLKPEDTAVYYCAADQWGGGDDYWGQGTQVTVSS | high polyreactivity
13 | QVQIVESGGGLVQAGGSLRLSCAASGRIFVVNDMGWYRPATGKERELVAAINSGGRTNYADSVKGRFTISRDNAKNTVDLQMNSLKREATAVYFCNAKRTGPWFLHVPVYYWGQGTQVTVSS | low polyreactivity
14 | QVQIVESGGGLVQAGGSLRLSCAASGRIFYKNAMGWYRQAPGKERELVAAISNVGSTYYADSVKGRFTISRDNAKTTVYLQMNSLKPEDTAVYYCNKRIYHLFTYDFWGQGTQVTVSS | high polyreactivity
15 | QVQIVESGGGLVQAGGSLRLSCAASGRILWFYAMGWYRHAPGKERELVAAITDSGGSTYYADSVKGRFTISRDNAKNPVYLQMNSLKPEDTAVYYCAADGDRYISGGGLAHYDYWGQGTQVNVSS | low polyreactivity
16 | QVQIVESGGGLVQAGGSLRLSCAASGRTFRANAMGWYRQAPGKERELVAAIRTGTRTYYADSVKGRFTISRDNANNTVYFQMNSLKTVDSAVYYCAARYYHPYSHGYWQERDYWGQGTKVTVSS | high polyreactivity
